Measurements reported in paper PMC10592010.

Target: EGFP-tagged full-length AR pQ69 mutant (GFP-ARpQ69) (human) (UniProt P10275)
Experiment: live-cell single-particle tracking

residence time (RT): 16 s
Substance: Halo-tagged AR NTD pQ69 with NLS (Halo-ARNTDpQ69-NLS) (from UniProt P10275-1 1-538) (domain or fragment)
